In the supplement of paper PMC10567573:
± gives the standard deviation.

Experiment: protein stability index of a GFP-peptide fusion (GPS, HEK-293T) (PSI 1-6); higher = more stable
[1] = treatment: DMSO, c terminus: a fixed tail appended
[2] = treatment: MLN4924 1 uM, 8 h, c terminus: a fixed tail appended
[3] = treatment: DMSO, c terminus: native
[4] = treatment: MLN4924 1 uM, 8 h, c terminus: native
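Further: 24-mer peptide tiles fused after GFP, lentivirally expressed, FACS-sorted into six equal bins by GFP/DsRed ratio, decoded by Illumina sequencing, PSI is the read-weighted mean bin number.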

| Sequence | protein stability index [1] | protein stability index [2] | protein stability index [3] | protein stability index [4] |
| --- | --- | --- | --- | --- |
| FPDGDDEFDSPHEDIVFETDHILE [STX11] | 5.19 ± 0.25 | 5.29 ± 0.16 | – | – |
| LNQGFLQAKPEKAAVAQKPRSHFT [MYBL2] | 3.88 ± 0.34 | 4.06 ± 0.12 | – | – |
| DEAKKFHLRPELRSQMQGPRTRAR [KLHL12] | 4.8 ± 0.1 | 4.67 ± 0.42 | – | – |
| LLFNVKSPTDIQDSSIIRTTQDLF [RHOBTB3] | 2.37 ± 0.17 | 2.35 ± 0.32 | – | – |
| SNVKVETQSDEENGRACEMNGEEC [IKZF1] | 5.75 ± 0.27 | 5.25 ± 0.36 | – | – |
| KLHKSQLSQALNGLSDRAKEAKEF [TRIM9] | 4.11 ± 0.15 | 4.17 ± 0.22 | – | – |
| SYLIEKVKRKKNVLRLCCKKLKIF [PRAME] | 3.23 ± 0.36 | 3.22 ± 0.28 | – | – |
| GAYDFPSPEWDTVTPEAKNLINQM [CAMK2B] | 3.76 ± 0.25 | 3.85 ± 0.25 | – | – |
| EHYRVQTQQTGTVRFDGYVIDGAT [FEM1B] | 3.64 ± 0.3 | 3.88 ± 0.26 | – | – |
| QTLKAMVQAWPFTCLPLGVLMKGQ [PRAME] | 2.65 ± 0.85 | 3.03 ± 0.38 | – | – |
| VQSIELQRPRFITSGGSNIIYVAS [VPS39] | 2.35 ± 0.44 | 2 ± 0.22 | – | – |
| YYIRYRGAVYADSGNFERCIRLWK [FEM1A] | 2.59 ± 0.35 | 2.5 ± 0.57 | – | – |
| RAPRSPGQVTPRGLRLRLPRRESL [C6orf223] | 4.19 ± 0.35 | 4.41 ± 0.25 | – | – |
| YFTDTDELQLEAANETYENNFDNL [ATF6] | 4.66 ± 0.14 | 4.337 ± 0.033 | – | – |
| PLDFEAYSAAALQEAMKRLRGAKA [FCHO1] | 3.46 ± 0.25 | 3.62 ± 0.29 | – | – |
| GGLNTETNEKALEAVFGKYGRIVE [RBMX] | 3.59 ± 0.26 | 3.22 ± 0.47 | – | – |
| LSEAYRVLSREQSRRSYDDQLRSG [DNAJC4] | 3.2 ± 0.3 | 3.03 ± 0.3 | – | – |
| AILVMHHSMKPHPAITATLLDFMC [INTS3] | 2.91 ± 0.36 | 2.98 ± 0.47 | – | – |
| LDLMPRLMTSKPAEVVKILQTMLR [INTS4] | 2.23 ± 0.16 | 2.13 ± 0.15 | – | – |
| PQKASPNGSISSAGNSSRNSSQSS [BTBD10] | 5.04 ± 0.24 | 4.96 ± 0.13 | – | – |
| GIELMEVDPIGHVYIFATCLGLSY [MAGEA6] | 3.02 ± 0.66 | 2.92 ± 0.41 | – | – |
| FQAKKIPIVSSLADPLDTPPDSKE [PDZK1] | 4.16 ± 0.3 | 4.39 ± 0.63 | – | – |

| Sequence | protein stability index [1] | protein stability index [2] | protein stability index [3] | protein stability index [4] |
| --- | --- | --- | --- | --- |
| TDQAIFYAVTPLPWCPHLVAVCPI [HDAC6] | 3.09 ± 0.61 | 3.22 ± 0.41 | – | – |
| EPCQLPSESPGSLSEVLAQPQGAL [DNAAF3] | 5.16 ± 0.22 | 5.13 ± 0.39 | – | – |
| CILLSALGYLLLGAATNVFLFVLA [MFSD9] | 2.53 ± 0.45 | 2.77 ± 0.27 | – | – |
| GYEVAAAQGPNKPGYLVGRNNANG [CPN1] | 4.2 ± 0.14 | 4.32 ± 0.21 | – | – |
| LEPKANLQAALQVLELHHSKLDTT [VPS39] | 4.2 ± 0.19 | 4.31 ± 0.19 | – | – |
| AWMLCKLLDKAGVPPGVVNIVFGT [ALDH8A1] | 2.642 ± 0.019 | 2.77 ± 0.51 | – | – |
| PRAERKCPRIAPADSGRYRASPTR [ELOA2] | 4.47 ± 0.14 | 4.47 ± 0.26 | – | – |
| DVDLLDSKVIEILDSQTEIYQYVQ [DLC1] | 3.41 ± 0.31 | 3.62 ± 0.38 | – | – |
| VDEYFRQPVVDTFDIRILMAKSVK [CARM1] | 2.47 ± 0.46 | 2.64 ± 0.63 | – | – |
| QNRYLDGMVRAHGVRVSVPCPSTT [BET1L] | 3.02 ± 0.37 | 3.21 ± 0.44 | – | – |
| PPDLGAQRRHGWNPKDCSENIEVK [SPSB2] | 4.84 ± 0.29 | 5.03 ± 0.14 | – | – |
| EAAEAVRPEERKTCRNPACGPQWE [ADAMTSL2] | 4.8 ± 0.27 | 4.74 ± 0.21 | – | – |
| EVHFLHEESILERVQQHIESKLLG [MLH1] | 2.98 ± 0.19 | 3.19 ± 0.24 | – | – |
| NLYSWDDFMELGRSIPDTQLEQVI [ACSBG2] | 3.25 ± 0.25 | 3.38 ± 0.31 | – | – |
| KRWQKNNWPKNSNGVTQKASAPTY [NANOGP8] | 3.39 ± 0.17 | 3.47 ± 0.21 | – | – |
| FFIESCGAQVPVEGSRRETSITV | – | – | 2.56 ± 0.97 | 2.29 ± 0.36 |
| KELEDMNQKLFDLRGKFKRPPLRR [TNNI2] | 3.86 ± 0.19 | 4.1 ± 0.42 | – | – |
| ATIENAQPILQIDNARLAADDFRT [KRT16] | 4.41 ± 0.17 | 4.52 ± 0.16 | – | – |
| IIPRTVIDGLDLLKKEHPGARDGI [SMG5] | 3.2 ± 0.31 | 3.39 ± 0.23 | – | – |
| DQGDEGKEGRPGIPGLPGLRGLPG [SCARA5] | 5 ± 0.13 | 4.93 ± 0.29 | – | – |
| TLVGNVAQDLGLKMTDLLSRRLQL [PCDHGC5] | 2.58 ± 0.66 | 2.6 ± 0.57 | – | – |
| LESLEDTHIMKGEDDALSDKHGCP [TRIB1] | 5.23 ± 0.69 | 5.37 ± 0.57 | – | – |

| Sequence | protein stability index [1] | protein stability index [2] | protein stability index [3] | protein stability index [4] |
| --- | --- | --- | --- | --- |
| IGDTSVSYKYTSRYVLKAGQTVTI [LMNB1] | 2.49 ± 0.73 | 2.29 ± 0.5 | – | – |
| DSFTTNKEHAVTMPCTWVMACAYA [GNB5] | 2.73 ± 0.79 | 2.53 ± 0.58 | – | – |
| LPYQRRYRERRDSDTYRCEERSPS [CLK3] | 4.77 ± 0.12 | 4.81 ± 0.22 | – | – |
| GDTPIRKKEELLFDDGDDIMATLG [FBF1] | 4.35 ± 0.18 | 4.47 ± 0.29 | – | – |
| YTSGTTGIPKGVMLSHDNITWIAG [ACSBG2] | 2.37 ± 0.36 | 2.21 ± 0.31 | – | – |
| EAFRLKQQLHARYVLNLLYETKKH [PPEF2] | 2.5 ± 0.61 | 2.36 ± 0.33 | – | – |
| KNWVKELRQHGPPNIVVAIAGNKC [RAB22A] | 2.29 ± 0.23 | 2.47 ± 0.21 | – | – |
| LRYQETPGPREALSQLRVLCCEWL [ZNF232] | 2.13 ± 0.23 | 2.29 ± 0.22 | – | – |
| EIQREIGISNALHRLKLRLAIQEM [PPFIA4] | 2.35 ± 0.72 | 2.3 ± 0.45 | – | – |
| SSADDASAWSNIQEAPLQDDSCLN [FAN1] | 5.26 ± 0.26 | 5.33 ± 0.27 | – | – |
| KVENLTLKNHFQSVLEQLELQEKQ [TAF7L] | 3.54 ± 0.13 | 3.96 ± 0.094 | – | – |
| FGGVDGLLAGGEKATMQNLNDRLA [KRT17] | 3.5 ± 0.32 | 3.69 ± 0.26 | – | – |
| SSIIHEIDSILGNKPYSKKDYRS [KCNAB2] | – | – | 3.02 ± 0.37 | 3.53 ± 0.28 |
| PQTHSNRIYRMIKLGLGIDEDEVA [HSP90AB1] | 3.25 ± 0.4 | 3.49 ± 0.31 | – | – |
| RQKGTGKEYAAKFIKKRRLSSSRR [DAPK3] | 4.2 ± 0.24 | 4.5 ± 0.29 | – | – |
| NWLQVSFTAKHANKVKVLDAPVPD [FSD1] | 3.02 ± 0.15 | 2.91 ± 0.19 | – | – |
| AGPYLLNGSYLELSSDRVANSSSE [ADAMTSL2] | 4.09 ± 0.27 | 4.07 ± 0.17 | – | – |
| QENESLFTFLGKKCVTMSSAVVQL [WASL] | 2.29 ± 0.34 | 2.32 ± 0.039 | – | – |
| GEAQPGLPQEDPSTSQGCAQPQGA [FEM1A] | 5.36 ± 0.21 | 5.51 ± 0.13 | – | – |
| AGPAGTGTPSLLRGKRGGHATNYR [EMID1] | 4.72 ± 0.49 | 4.59 ± 0.22 | – | – |
| MGVSSVIHPKNPHAPTIHFNYRYF [CPOX] | 2.16 ± 0.35 | 2.12 ± 0.18 | – | – |
